This is an account of results in patent US20210130436A1.

The target in assay [1] is PD-L1 (human) (UniProt Q9NZQ7). In words: cell-based or functional assay.
Assay [2] addresses CD28 (human) (UniProt P10747). In words: cell-based or functional assay.

Chain of PD-L1 (human) (Q9NZQ7 19-290): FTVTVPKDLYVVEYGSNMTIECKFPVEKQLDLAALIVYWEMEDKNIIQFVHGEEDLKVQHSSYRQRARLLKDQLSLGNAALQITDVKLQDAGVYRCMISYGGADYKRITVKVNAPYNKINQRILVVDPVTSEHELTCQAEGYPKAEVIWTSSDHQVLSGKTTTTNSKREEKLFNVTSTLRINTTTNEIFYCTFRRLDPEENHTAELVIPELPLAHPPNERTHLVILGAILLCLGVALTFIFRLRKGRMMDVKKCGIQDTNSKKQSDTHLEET

For the substance “CD80 IgV-Fc (inert) H18A/A26N/E35D/M47L/V68M/A71G/D90G (from UniProt P33681 35-141) (Fc fusion)”, the RLU, Jurkat/IL2 + CHO/OKT3/PD-L1 Reporter Assay, CD80 Conc 5.0 nM in assay [1] is 1050 RLU.

For the substance “CD80 IgV-Fc (inert) H18C/A26P/E35D/M47L/V68M/A71G (from UniProt P33681 35-141) (Fc fusion)”, the RLU, Jurkat/IL2 + CHO/OKT3/PD-L1 Reporter Assay, CD80 Conc 5.0 nM in assay [1] was 936 RLU.

As for “CD80 IgV-Fc (inert) H18F/A26P/E35D/M47I/V68M/A71G/D90G (from UniProt P33681 35-141) (Fc fusion)”, the RLU, Jurkat/IL2 + CHO/OKT3/PD-L1 Reporter Assay, CD80 Conc 5.0 nM in assay [1] turned out to be 926 RLU.

Turning to “CD80 IgV-Fc (inert) H18R/A26P/E35D/D46N/M47V/V68M/A71G/D90P (from UniProt P33681 35-141) (Fc fusion)”, the RLU, Jurkat/IL2 + CHO/OKT3/PD-L1 Reporter Assay, CD80 Conc 5.0 nM in assay [1] came out at 972 RLU.

As for “CD80 IgV-Fc (inert) H18T/A26N/E35D/M47L/V68M/A71G (from UniProt P33681 35-141) (Fc fusion)”, the RLU, Jurkat/IL2 + CHO/OKT3/PD-L1 Reporter Assay, CD80 Conc 5.0 nM in assay [1] came out at 1050 RLU.

“CD80 IgV-Fc (inert) H18V/A26D/E35D/M47V/V68M/A71G/D90G (from UniProt P33681 35-141) (Fc fusion)”: the RLU, Jurkat/IL2 + CHO/OKT3/PD-L1 Reporter Assay, CD80 Conc 5.0 nM in assay [1] stood at 771 RLU.

Consider “CD80 IgV-Fc (inert) H18V/A26K/E35D/M47L/V68M/A71G (from UniProt P33681 35-141) (Fc fusion)”, for which the RLU, Jurkat/IL2 + CHO/OKT3/PD-L1 Reporter Assay, CD80 Conc 5.0 nM in assay [1] came out at 957 RLU.

On to “CD80 IgV-Fc (inert) H18V/A26N/E35D/M47V/V68M/A71G (from UniProt P33681 35-141) (Fc fusion)”, for which, in assay [1], the RLU, Jurkat/IL2 + CHO/OKT3/PD-L1 Reporter Assay, CD80 Conc 5.0 nM was found to be 985 RLU.

Take “CD80 IgV-Fc (inert) H18V/A26R/E35D/M47L/V68M/A71G/D90G (from UniProt P33681 35-141) (Fc fusion)”: in assay [1], the RLU, Jurkat/IL2 + CHO/OKT3/PD-L1 Reporter Assay, CD80 Conc 5.0 nM is 738 RLU.

As to “CD80 IgV-Fc (inert) H18Y/A26P/E35D/M47I/V68M/A71G (from UniProt P33681 35-141) (Fc fusion)”, the RLU, Jurkat/IL2 + CHO/OKT3/PD-L1 Reporter Assay, CD80 Conc 5.0 nM in assay [1] came out at 761 RLU.

Consider “CD80 IgV-Fc (inert) H18Y/A26Q/E35D/M47T/V68M/A71G/D90G (from UniProt P33681 35-141) (Fc fusion)”, for which the RLU, Jurkat/IL2 + CHO/OKT3/PD-L1 Reporter Assay, CD80 Conc 5.0 nM in assay [1] came out at 994 RLU.

With “CD80 IgV-Fc (inert) H18Y/E35D/M47V/V68M/A71G (from UniProt P33681 35-141) (Fc fusion)”, the RLU, Jurkat/IL2 + CHO/OKT3/PD-L1 Reporter Assay, CD80 Conc 5.0 nM in assay [1] came to 963 RLU.

On to “CD80 IgV-Fc D46V/M47I/A71G (from UniProt P33681 35-141) (Fc fusion)”, for which the Jurkat/IL2 + CHO/OKT3/PD-L1 reporter assay, RLU at CD80 Conc 5.0 nM in assay [1] was determined as 1600 RLU.

As to “CD80 IgV-Fc E35D/D46E (from UniProt P33681 35-141) (Fc fusion)”, the Jurkat/IL2 + CHO/OKT3/PD-L1 reporter assay, RLU at CD80 Conc 5.0 nM in assay [1] worked out at 1960 RLU.

As for “CD80 IgV-Fc E35D/D46E/A91G (from UniProt P33681 35-141) (Fc fusion)”, the Jurkat/IL2 + CHO/OKT3/PD-L1 reporter assay, RLU at CD80 Conc 5.0 nM in assay [1] is 395 RLU.

Consider “CD80 IgV-Fc E35D/D46E/L85M (from UniProt P33681 35-141) (Fc fusion)”, for which, in assay [1], the Jurkat/IL2 + CHO/OKT3/PD-L1 reporter assay, RLU at CD80 Conc 5.0 nM worked out at 1410 RLU.

In the case of “CD80 IgV-Fc E35D/D46E/M47I (from UniProt P33681 35-141) (Fc fusion)”, the Jurkat/IL2 + CHO/OKT3/PD-L1 reporter assay, RLU at CD80 Conc 5.0 nM in assay [1] was found to be 1920 RLU.

With “CD80 IgV-Fc E35D/L97R (from UniProt P33681 35-141) (Fc fusion)”, the Jurkat/IL2 + CHO/OKT3/PD-L1 reporter assay, RLU at CD80 Conc 5.0 nM in assay [1] was 914 RLU.

As to “CD80 IgV-Fc E35D/M43I/D46E/A71G/L85M (from UniProt P33681 35-141) (Fc fusion)”, in assay [1], the Jurkat/IL2 + CHO/OKT3/PD-L1 reporter assay, RLU at CD80 Conc 5.0 nM amounted to 1480 RLU.

In the case of “CD80 IgV-Fc E35D/M43I/M47L/L85M (from UniProt P33681 35-141) (Fc fusion)”, in assay [1], the Jurkat/IL2 + CHO/OKT3/PD-L1 reporter assay, RLU at CD80 Conc 5.0 nM worked out at 1430 RLU.

With “CD80 IgV-Fc E35D/M47L/A71G (from UniProt P33681 35-141) (Fc fusion)”, in assay [1], the Jurkat/IL2 + CHO/OKT3/PD-L1 reporter assay, RLU at CD80 Conc 5.0 nM was 1950 RLU.

In the case of “CD80 IgV-Fc E35D/M47L/A71G/L85M (from UniProt P33681 35-141) (Fc fusion)”, in assay [1], the Jurkat/IL2 + CHO/OKT3/PD-L1 reporter assay, RLU at CD80 Conc 5.0 nM amounted to 1510 RLU.

As for “CD80 IgV-Fc E35D/M47V (from UniProt P33681 35-141) (Fc fusion)”, the Jurkat/IL2 + CHO/OKT3/PD-L1 reporter assay, RLU at CD80 Conc 5.0 nM in assay [1] is 1350 RLU.

“CD80 IgV-Fc E35D/M47V/I61V/L85M (from UniProt P33681 35-141) (Fc fusion)”: the Jurkat/IL2 + CHO/OKT3/PD-L1 reporter assay, RLU at CD80 Conc 5.0 nM in assay [1] was found to be 1180 RLU.

As to “CD80 IgV-Fc E35D/M47V/L85M/R94Q (from UniProt P33681 35-141) (Fc fusion)”, in assay [1], the Jurkat/IL2 + CHO/OKT3/PD-L1 reporter assay, RLU at CD80 Conc 5.0 nM worked out at 466 RLU.

In the case of “CD80 IgV-Fc E35D/M47V/T62S/L85Q (from UniProt P33681 35-141) (Fc fusion)”, the Jurkat/IL2 + CHO/OKT3/PD-L1 reporter assay, RLU at CD80 Conc 5.0 nM in assay [1] stood at 1400 RLU.

Consider “CD80 IgV-Fc E35D/N48K/L72V (from UniProt P33681 35-141) (Fc fusion)”, for which the Jurkat/IL2 + CHO/OKT3/PD-L1 reporter assay, RLU at CD80 Conc 5.0 nM in assay [1] came out at 1730 RLU.

For “CD80 IgV-Fc E35D/T41S/N48T (from UniProt P33681 35-141) (Fc fusion)”, in assay [1], the Jurkat/IL2 + CHO/OKT3/PD-L1 reporter assay, RLU at CD80 Conc 5.0 nM came out at 1140 RLU.

Regarding “CD80 IgV-Fc H18Y/E35D/M47L/A71G/A91S (from UniProt P33681 35-141) (Fc fusion)”, the Jurkat/IL2 + CHO/OKT3/PD-L1 reporter assay, RLU at CD80 Conc 5.0 nM in assay [1] was 1900 RLU.

Consider “CD80 IgV-Fc M43I/M47L/A71G (from UniProt P33681 35-141) (Fc fusion)”, for which the Jurkat/IL2 + CHO/OKT3/PD-L1 reporter assay, RLU at CD80 Conc 5.0 nM in assay [1] amounted to 1640 RLU.

With “CD80 IgV-Fc M47I/A71G (from UniProt P33681 35-141) (Fc fusion)”, the Jurkat/IL2 + CHO/OKT3/PD-L1 reporter assay, RLU at CD80 Conc 5.0 nM in assay [1] was determined as 1760 RLU.

“CD80 IgV-Fc Q27H/E35D/M47I (from UniProt P33681 35-141) (Fc fusion)”: in assay [1], the Jurkat/IL2 + CHO/OKT3/PD-L1 reporter assay, RLU at CD80 Conc 5.0 nM amounted to 1830 RLU.

For “CD80 IgV-Fc Q27L/E35D/M47V/I61V/L85M (from UniProt P33681 35-141) (Fc fusion)”, in assay [1], the Jurkat/IL2 + CHO/OKT3/PD-L1 reporter assay, RLU at CD80 Conc 5.0 nM was determined as 1170 RLU.

As to “CD80 IgV-Fc V22A/E35D/M47L/A71G (from UniProt P33681 35-141) (Fc fusion)”, the Jurkat/IL2 + CHO/OKT3/PD-L1 reporter assay, RLU at CD80 Conc 5.0 nM in assay [1] worked out at 2580 RLU.

“Fc only Control (inert Fc) (from UniProt P0DOX5 218-448)”: in assay [2], the IL-2 release, primary T cells; K562/OKT3 (No PD-L1); 1 nM was found to be 7040; the IL-2 release, primary T cells; K562/OKT3 (No PD-L1); 10 nM was 6340; the IL-2 release, primary T cells; K562/OKT3 (No PD-L1); 100 nM stood at 5510; the RLU, Jurkat/IL2 reporter; K562/OKT3 aAPC, FcR Dependent Cross-Linking (No PD-L1); 0.6 nM was 1400 RLU. Also, in assay [2], the RLU, Jurkat/IL2 reporter; K562/OKT3 aAPC, FcR Dependent Cross-Linking (No PD-L1); 1.9 nM came out at 1390 RLU; the RLU, Jurkat/IL2 reporter; K562/OKT3 aAPC, FcR Dependent Cross-Linking (No PD-L1); 5.6 nM is 1390 RLU; the RLU, Jurkat/IL2 reporter; K562/OKT3 aAPC, FcR Dependent Cross-Linking (No PD-L1); 16.7 nM was found to be 1370 RLU; the RLU, Jurkat/IL2 reporter; K562/OKT3 aAPC, FcR Dependent Cross-Linking (No PD-L1); 50 nM came to 1370 RLU. In assay [1], the IL-2 release, primary T cells; K562/OKT3/PD-L1; 10 nM is 143; the RLU, Jurkat/IL2 reporter; K562/OKT3/PD-L1 aAPC, Combination of FcR and/or PD-L1 Dependent Cross-Linking; 0.6 nM was found to be 689 RLU; the RLU, Jurkat/IL2 reporter; K562/OKT3/PD-L1 aAPC, Combination of FcR and/or PD-L1 Dependent Cross-Linking; 1.9 nM was 675 RLU; the RLU, Jurkat/IL2 reporter; K562/OKT3/PD-L1 aAPC, Combination of FcR and/or PD-L1 Dependent Cross-Linking; 5.6 nM worked out at 666 RLU. Besides, in assay [1], the RLU, Jurkat/IL2 reporter; K562/OKT3/PD-L1 aAPC, Combination of FcR and/or PD-L1 Dependent Cross-Linking; 16.7 nM was found to be 694 RLU and the RLU, Jurkat/IL2 reporter; K562/OKT3/PD-L1 aAPC, Combination of FcR and/or PD-L1 Dependent Cross-Linking; 50 nM came out at 679 RLU.

On to “variant CD80 IgV-Fc (inert) Y31S/E35D/M47L/T79L/E88G (Fc fusion)”, for which, in assay [2], the Fold Increase over WT CD80-IgV-Fc, same assay, 50 nM came to 0.9 fold and the IL-2-luciferase RLU, Jurkat + K562/OKT3/PD-L1 aAPC, 50 nM is 496 RLU.
